Where a chain is given by its changes, count along the chain named.
T1: ΔCRD3-TNFR2 protein (with CRD3 deletion), on CHO-S cells (human, UniProt P20333 23-461)
T1 construct: also called CHO-SΔCRD3-TNFR2; TNFR2 lacking CRD3
T1 sequence: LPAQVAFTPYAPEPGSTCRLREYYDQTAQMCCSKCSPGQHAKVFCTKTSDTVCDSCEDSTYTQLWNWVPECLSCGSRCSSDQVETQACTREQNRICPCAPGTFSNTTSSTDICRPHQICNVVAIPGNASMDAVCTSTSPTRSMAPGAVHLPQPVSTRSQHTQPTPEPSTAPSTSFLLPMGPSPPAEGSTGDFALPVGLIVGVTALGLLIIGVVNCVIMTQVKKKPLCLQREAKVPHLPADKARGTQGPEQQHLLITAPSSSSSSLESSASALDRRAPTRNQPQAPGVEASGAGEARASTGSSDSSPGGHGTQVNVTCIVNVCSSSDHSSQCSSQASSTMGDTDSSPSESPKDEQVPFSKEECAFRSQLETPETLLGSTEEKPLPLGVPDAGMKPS

T2: mouse TNFR2 (on transfected CHO cells) (mouse, UniProt P25119 23-474)
T2 construct: also called mTNFR2
T2 sequence: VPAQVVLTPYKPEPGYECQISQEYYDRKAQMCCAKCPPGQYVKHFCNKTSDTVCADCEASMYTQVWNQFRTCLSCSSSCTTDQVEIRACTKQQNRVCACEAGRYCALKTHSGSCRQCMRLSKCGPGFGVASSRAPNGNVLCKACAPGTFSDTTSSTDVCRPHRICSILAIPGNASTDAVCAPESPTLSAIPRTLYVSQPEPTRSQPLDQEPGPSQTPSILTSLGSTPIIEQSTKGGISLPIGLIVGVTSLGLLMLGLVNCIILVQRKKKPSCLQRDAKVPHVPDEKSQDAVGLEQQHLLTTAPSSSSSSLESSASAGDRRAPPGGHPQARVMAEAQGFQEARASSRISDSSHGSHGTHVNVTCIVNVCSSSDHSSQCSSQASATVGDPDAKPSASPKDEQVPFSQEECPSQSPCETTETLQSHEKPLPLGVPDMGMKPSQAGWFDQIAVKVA

T3: His-tagged human TNFR1 (Human TNFR1/CD120a/TNFRSF1A Protein, His Tag, Acrobiosystems Cat #: TN1-5222) (human, UniProt P19438 30-211)
T3 construct: Bought protein; also called hTNFR1-His; hTNFR 1-His; not shown: His tag
T3 sequence (looked up): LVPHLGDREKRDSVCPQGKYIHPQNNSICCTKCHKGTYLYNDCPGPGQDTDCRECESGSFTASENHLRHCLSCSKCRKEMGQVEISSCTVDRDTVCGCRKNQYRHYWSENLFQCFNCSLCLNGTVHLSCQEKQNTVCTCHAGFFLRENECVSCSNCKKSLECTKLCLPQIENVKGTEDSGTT

T4: His-tagged monkey (Crab-eating monkey) TNFR2 (Sino Biological, Cat #: 90102-C08H) (monkey (Crab-eating monkey), UniProt P20333 27-257 (human entry))
T4 construct: Bought protein; also called fTNFR2-His; not shown: His tag
T4 chain: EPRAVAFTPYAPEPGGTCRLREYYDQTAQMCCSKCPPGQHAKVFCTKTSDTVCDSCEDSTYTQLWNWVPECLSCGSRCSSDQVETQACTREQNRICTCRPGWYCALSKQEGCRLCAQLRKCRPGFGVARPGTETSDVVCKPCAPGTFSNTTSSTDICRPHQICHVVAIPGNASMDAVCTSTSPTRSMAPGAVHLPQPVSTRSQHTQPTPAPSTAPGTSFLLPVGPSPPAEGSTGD

B1: BC-1C3-IgG1 (antibody, V domains shown)
VH: QVQLVESGGGVVHPGKSLRLSCAASGFTFNIYGMHWVRQAPGKGLEWVALISYDGNDKYFADSVKGRFTISRDNSKNTLYLQMNSLRAEDTAVYYCAKAVDTAVVTFFDYWGQGTLVTVSS
VL: EIVMTQSPVTLSVSPGERATLSCRASQSVSSNLAWYQQKPGQAPRLLIYSASTRATGIPARFSGSGSGTEFTLTISSLQSEDLAVYYCQQYSNWPFTFGPGTKVDIK
notes: Human VH/VL joined to the human IgG1 subtype
B2: BC-1A8-IgG1 (antibody, V domains shown)
VH: QVQLQQSGPGLVKPSQTLSLTCAISGDSVSSNSAAWNWIRQSPSRGLEWLGRTYYRSKWYNDYALSVKSRITINPETSKNQFSLQLNSVTPEDTAVYYCAREDGVGGTKDYFDYWGQGTLVTVSS
VL: DIQMTQSPSSLSASVGDRVTITCQASQDIDNYLNWYQQKPGKAPKLLIYDVSNLEIGVPSRFSGSGSGTDFTFTISSLQPEDIATYYCQQYDNLPLTFGQGTRLEIK
notes: Fully human VH/VL joined to the human IgG1 subtype, kappa light chain (RenMab mice)
B3: BC-1F4-IgG1 (antibody, V domains shown)
VH: B2 VH with N32D, A34S, A64T, L65V, E76D
VL: B2 VL with D30S, V51A, I56T, S76N, I83F, Y87F, L96I
notes: as for B1
B4: BC-1B6-IgG1 (antibody, V domains shown)
VH: QVQLVESGGGVVQPGRSLRLSCAASGFTFSNFGMHWVRQAPGKGLEWVAVIWYEGSDKYYADSVKGRFTISRDNSKNTLYLQMNSLRAEDTAVYYCARDSSWGFLLYGMDVWGQGTTVTVSS
VL: DVVMTQSPLSLPVTLGQPASISCRSSRSLEYSDGNTYLNWFQQRPGQSPRRLIYKVSNRDSGVPDRFSGSGSGTAFTLKISGVEAEDVGVYYCMQGTHWPPTFGGGTKVEIK
notes: as for B1
B5: BC-1F10-IgG1 (antibody, V domains shown)
VH: QVQLQQWGAGLLKPSETLSLICAVYDGSFSGDYWSWIRQPPGKGLEWIGEINHSGSTNYNPSLKSRVTISVDTSKNQFSLKLSSVTAADTAVYYCARGHWNYDYYYGMDVWGQGTTVTVSS
VL: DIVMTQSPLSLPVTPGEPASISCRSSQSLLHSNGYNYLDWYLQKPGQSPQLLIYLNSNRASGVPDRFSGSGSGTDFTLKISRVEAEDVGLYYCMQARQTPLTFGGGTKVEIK
notes: as for B1

Each binder was assayed against T1, ΔCRD3-TNFR2 protein (with CRD3 …) (assay: FACS on CHO-S cells with ΔCRD3-TNFR2).
From the text: TNFR2 has four cysteine rich domains (CRD). In another experiment, FACS was used to detect the binding of anti-hTNFR2 antibodies to TNFR2 proteins with different structural domains. Secondary antibody (Alexa Fluor® 647 AffiniPure F(ab′) 2 Fragment Goat Anti-Human IgG, Fcγ fragment specific, Jackson ImmunoResearch Laboratories, Inc., Cat #: 151524) was used. The fluorescence-labeled secondary antibody can attach to the Fc region of the anti-hTNFR2 antibodies so that the anti-hTNFR2 antibodies that are bound to the ΔCRD cells can be detected by FACS. Specifically, ΔCRD1-TNFR2 protein (with CRD1 deleteion), ΔCRD2-TNFR2 protein (with CRD2 deleteion), ΔCRD3-TNFR2 protein (with CRD3 deleteion) or ΔCRD4-TNFR2 protein (with CRD4 deleteion) were expressed in CHO-S cells respectively, and then the binding between the cells and different anti-hTNFR2 antibodies was detected.

| Binder | binding result |
| --- | --- |
| B1 | no binding |
| B2 | no binding |
| B3 | no binding |

Each binder was assayed against T2, mouse TNFR2 (on transfected CHO cells) (assay: flow cytometry on transfected CHO cells).
Experimental: 30 μl CHO cells (1×10⁵ cells) were added to each well. 30 μl purified anti-TNFR2 antibodies (10 μg/mL) (as listed in Table 4) were added to each well and were incubated at 4° C. for 30 minutes.
After two washes with PBS (1600 rmp, 6 min), 50 μl of Alexa Fluor labeled anti-human IgG Fc antibody […] was added into each well 1:500 dilution, incubated at 4° C. for 15 minutes, followed by a PBS wash (1200 rmp, 5 min). The signals for AF647 were detected by flow cytometry.

| Binder | binding result |
| --- | --- |
| B1 | no binding (tested: 10 µg/mL) |
| B4 | no binding (tested: 10 µg/mL) |
| B2 | no binding (tested: 10 µg/mL) |
| B3 | no binding (tested: 10 µg/mL) |
| B5 | no binding (tested: 10 µg/mL) |

These binders were tested against T3, His-tagged human TNFR1 (Human …) (assay: SPR Biacore 8K, antibody captured on Protein A chip).
Experimental: The binding affinity of the anti-TNFR2 antibodies to human TNFR2 and TNFR1 (Tumor necrosis factor receptor 1) were measured using surface plasmon resonance (SPR) using Biacore (Biacore, INC, Piscataway NJ) 8K biosensor equipped with pre-immobilized Protein A sensor chips.
(§1) Purified anti-TNFR2 antibodies were diluted to 1 μg/mL and then injected into the Biacore 8K biosensor at 10 μL/min for about 50 seconds to achieve a desired protein density (e.g., about 50 response units (RU)). […] Dissociation was monitored for 600 seconds. The chip was regenerated after the last injection of each titration with Glycine (pH 2.0, 30 μL/min for 30 seconds).

| Binder | binding result |
| --- | --- |
| B1 | no binding (tested: up to 200 nM analyte) |
| B4 | no binding (tested: up to 200 nM analyte) |
| B2 | no binding (tested: up to 200 nM analyte) |
| B3 | no binding (tested: up to 200 nM analyte) |
| B5 | no binding (tested: up to 200 nM analyte) |

Target: T4, His-tagged monkey (Crab-eating monkey) …
Assay: SPR Biacore 8K, antibody captured on Protein A chip, fTNFR2-His as analyte
Experimental: as §1
Similar to the aforementioned binding affinity experiment, the binding affinities of the anti-TNFR2 antibodies BC-1B6-IgG1, BC-1C3-IgG1 and BC-1F4-IgG1 to His-tagged monkey (Crab-eating monkey) TNFR2 (fTNFR2-His, Sino Biological, Cat #: 90102-C08H) were measured.

| Binder | Kd [nM] | koff [s⁻¹] | kon [M⁻¹ s⁻¹] |
| --- | --- | --- | --- |
| B1 | 118 | 0.0221 | 187000 |
| B4 | 17.5 | 0.00547 | 313000 |
| B3 | 20.1 | 0.0109 | 541000 |
